Biological target: human CRM1 (HsCRM1), wild type (human, UniProt O14980 1-1071)
Assay: direct titration, PKI WT set

Sequence of human CRM1 (HsCRM1), wild type (O14980 whole entry): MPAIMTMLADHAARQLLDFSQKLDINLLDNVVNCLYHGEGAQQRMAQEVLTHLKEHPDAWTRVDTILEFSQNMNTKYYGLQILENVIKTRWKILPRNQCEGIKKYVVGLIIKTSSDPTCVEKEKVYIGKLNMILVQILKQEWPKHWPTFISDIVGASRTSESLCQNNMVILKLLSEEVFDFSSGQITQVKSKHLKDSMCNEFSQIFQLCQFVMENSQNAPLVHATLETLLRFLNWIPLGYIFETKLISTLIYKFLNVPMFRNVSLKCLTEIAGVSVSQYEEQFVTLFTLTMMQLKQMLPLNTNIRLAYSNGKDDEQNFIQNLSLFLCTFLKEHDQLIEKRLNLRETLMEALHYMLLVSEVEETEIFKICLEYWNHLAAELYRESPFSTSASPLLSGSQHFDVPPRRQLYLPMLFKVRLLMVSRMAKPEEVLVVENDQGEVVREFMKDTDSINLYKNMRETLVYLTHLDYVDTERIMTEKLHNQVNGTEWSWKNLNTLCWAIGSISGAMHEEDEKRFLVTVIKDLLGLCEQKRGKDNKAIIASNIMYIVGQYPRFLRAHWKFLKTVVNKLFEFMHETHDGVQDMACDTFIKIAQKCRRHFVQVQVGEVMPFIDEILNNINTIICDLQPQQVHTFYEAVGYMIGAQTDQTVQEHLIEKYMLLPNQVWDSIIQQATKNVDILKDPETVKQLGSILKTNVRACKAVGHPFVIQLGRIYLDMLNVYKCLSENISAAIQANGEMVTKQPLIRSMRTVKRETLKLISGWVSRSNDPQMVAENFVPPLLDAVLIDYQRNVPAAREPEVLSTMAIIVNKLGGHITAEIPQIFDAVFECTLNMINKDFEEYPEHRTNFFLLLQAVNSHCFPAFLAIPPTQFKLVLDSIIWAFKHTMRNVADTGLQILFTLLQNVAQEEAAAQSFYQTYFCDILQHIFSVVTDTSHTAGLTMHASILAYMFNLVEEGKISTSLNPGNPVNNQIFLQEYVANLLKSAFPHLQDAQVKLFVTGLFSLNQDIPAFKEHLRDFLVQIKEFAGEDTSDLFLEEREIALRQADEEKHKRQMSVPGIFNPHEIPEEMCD

B1: FITC-PKI NES (NES of Protein Kinase A Inhibitor, wild type) (peptide)
chain: NSNELALKLAGLDINKT
modifications: FITC label (FITC-PKI^NES)
With B1 as the binder, how does the Kd read?
The Kd was 29 nM.

From paper PMC5358978 (2017)
